According to patent publication US20260055369A1, “METHOD FOR GENERATING CELLS OF THE T CELL LINEAGE WITH ENGINEERING BROADLY REACTIVE HUMAN NOTCH LIGAND” (H. Lee Moffitt Cancer Center and Research Institute, Inc., priority 2022, published 2026):

Experiments:
hNotch1 = assay: Notch signaling assay using multiple ligand-presentation formats (U2OS hNotch1-Gal4 luciferase); type: cell-based, human
Description: Notch activation was assayed in different formats (FIG. 14A) including (1) non-specific orientation (0.1 ng/mm^2 of Delta^MAX on well, FIG. 3A), (2) ligand-oriented coupling (10 nM of Delta^MAX on well, FIG. 3B), (3) magnetic beads coated with biotinylated Delta^MAX (ratio 1:20 reporter cells:beads, optimization of ratio is detailed in FIG. 14D), (4) HEK293T-expressing Delta^MAX (ratio 1:1, signal receivers:senders, optimization of ratio can be seen in FIG. 14C), and (5) yeast-expressing Delta^MAX (ratio 1:10, reporter:yeast, optimization of ratio is detailed in FIG. 14B). On day one, U2OS hNotch1-Gal4 cells were detached with trypsin-EDTA, counted in the microscope, and 5×10E5 cells/well transferred to 6-well tissue culture plates (Falcon). On day two, U2OS cells were transfected as described above. On day three, the different activation assays were set up at the same time. For ligand oriented-coupling, streptavidin plates were coated with 10 nM of Delta^MAX as described above. For non-specific adsorption, non-biotinylated Delta^MAX at 0.1 ng/mm was coated as described previously. For activation using streptavidin beads coated with biotinylated Delta^MAX, 200 mg of streptavidin beads (streptavidin MagneSphere paramagnetic particles, Promega) were washed 3 times with 200 μL of DPBS+0.1% BSA using a magnet (Miltenyi), and combined with 20 μg of biotinylated Delta^MAX for 1.5 hours at 4° C. Next, unbound Delta^MAX was washed out three times with 200 μL of DPBS+0.1% BSA, and 100 μL of complexed beads (pre-diluted 1/25 in DPBS) were added to wells. For co-culture activation with HEK293T-expressing Delta^MAX, cells were detached with trypsin-EDTA, quenched with DMEM media, washed with DPBS, and 100 μL containing 20,000 cells in DMEM were added to wells. For activation with yeast cells expressing Delta^MAX on surface, pYAL vector encoding for Delta^MAX (N-EGF5) was electroporated previously into yeast cells, and DLL4 expressed in SGCAA as previously described. Delta^MAX expression was induced 48 hours before Notch activation assay set up. One hundred microliters of yeast cells (2×10E6 cells/mL) in serum-free DMEM were added to the assay plate. Once all the wells contained the desired activation assays, U2OS reporter cells were detached with trypsin-EDTA, and 20,000 cells in 100 μL of DMEM were added per well. All the conditions were supplemented with 2 μg/mL of doxycycline to induce Notch1-Gal4 expression. The assay plate was incubated for 24 hours at 37° C. and 5% CO2. On day four, media was aspirated off and Luciferase Dual-Glo kit (Promega) used to detect firefly and Renilla signals in a luminometer (GloMax, Promega). Negative controls were BSA 0.5% for non-specific adsorption, streptavidin and BSA 2% for ligand oriented-coupling, uncoated streptavidin beads for activation with magnetic beads, HEK293T non-expressing DLL4 for co-culture activation, and yeast expressing PDL-1 ECD for co-culture with yeast. The expression of Delta^MAX in HEK293T and yeast cells was confirmed by flow cytometry (BD Accuri C6 plus) following staining for 1 hour at 4° C. with anti-hDLL4 PE antibody using DPBS+0.5% BSA, and selection buffer, respectively (FIG. 14E). Notch activation is represented as the mean fold-change over the corresponding control±s.d. of three independent biological replicates.

Notch1 = assay: Kinetics for Notch activation assay (time course, CHO-K1 N1-Gal4); type: cell-based; conditions: immobilized at 50 nM; most pronounced in first 4 to 8 hours
Description: 96-well tissue culture plates (Coastar) were pre-coated using ligand-oriented coupling as described above with 50 nM of DLL4 biotinylated variants. CHO-K1 N1-Gal4 reporter cells were detached with trypsin-EDTA, washed with DPBS, and 200 μL of α-MEM media containing 30,000 cells were added into wells. Notch activation was analyzed as end-points for 0, 4, 8, 12, 16, 20, and 24-hour measurements. Desired time point wells containing CHO-K1 N1-Gal4 reporter cells were washed once with 200 μL DPBS, detached with trypsin-EDTA, and quenched with 200 μL of α-MEM media. Next, reporter cells were resuspended and analyzed by flow cytometry reading the fluorescence of H2B-mCitrine (BD Accuri C6 Plus). Every time point represents the mean fluorescence intensity of Notch activation as percentage+s.d. of three independent biological replicates. Notch activation was reference-subtracted from a well containing streptavidin, BSA and CHO-K1 N1-Gal4 cells.

Notch1 (EGF6-13) = assay: SPR determination of equilibrium dissociation constants; type: binding, human
Description: Equilibrium dissociation constants were determined by surface plasmon resonance using a Biacore T200 instrument (GE Healthcare). Approximately 100 resonance units (RU) of biotinylated Notch extracellular fragments (Notch1 (EGF6-13), Notch2 (EGF6-13), Notch3 (EGF5-12), Notch4 (7-12), and mouse Notch1 (EGF6-13)) were immobilized on individual flow cells at 5 μl/min using a streptavidin-coated sensor chip (Series S Sensor chip SA, GE Healthcare). Three-fold serial dilutions of recombinant DLL4 proteins (N-EGF5) starting at 50 μM (WT DLL4), 18 μM (DLL4.v2), and 6 μM (DLL4.v1 and Delta^MAX) were flowed over the chip at 25° C. in SPR buffer (20 mM HEPES pH 7.4, 150 mM NaCl, 1 mM calcium chloride, 0.1% BSA supplemented with 0.005% surfactant P20). Association (“on-rate”) and dissociation (“off-rate”) phases were performed at 10 μl/min for 120 seconds and 300 seconds, respectively. The sensor chip was regenerated after each injection with 30-second washes of 2.25M Magnesium Chloride containing 25% Ethylene Glycol at 50 μL/min. Data collection rate was performed at 10 Hz, and curves were reference-subtracted from a flow cell containing 100 RU of a negative control non-related protein (biotinylated mouse RNF43 PA domain). The maximum RU for each experiment was normalized to a value of 100% and plotted as a function of concentration using Prism 9 software (GraphPad). Steady-state binding and kinetic curves were fitted using the Biacore T200 evaluation software to a 1:1 Langmuir model to determine the KD values.

hNotch1, sequence (P46531 19-1664 limits assumed): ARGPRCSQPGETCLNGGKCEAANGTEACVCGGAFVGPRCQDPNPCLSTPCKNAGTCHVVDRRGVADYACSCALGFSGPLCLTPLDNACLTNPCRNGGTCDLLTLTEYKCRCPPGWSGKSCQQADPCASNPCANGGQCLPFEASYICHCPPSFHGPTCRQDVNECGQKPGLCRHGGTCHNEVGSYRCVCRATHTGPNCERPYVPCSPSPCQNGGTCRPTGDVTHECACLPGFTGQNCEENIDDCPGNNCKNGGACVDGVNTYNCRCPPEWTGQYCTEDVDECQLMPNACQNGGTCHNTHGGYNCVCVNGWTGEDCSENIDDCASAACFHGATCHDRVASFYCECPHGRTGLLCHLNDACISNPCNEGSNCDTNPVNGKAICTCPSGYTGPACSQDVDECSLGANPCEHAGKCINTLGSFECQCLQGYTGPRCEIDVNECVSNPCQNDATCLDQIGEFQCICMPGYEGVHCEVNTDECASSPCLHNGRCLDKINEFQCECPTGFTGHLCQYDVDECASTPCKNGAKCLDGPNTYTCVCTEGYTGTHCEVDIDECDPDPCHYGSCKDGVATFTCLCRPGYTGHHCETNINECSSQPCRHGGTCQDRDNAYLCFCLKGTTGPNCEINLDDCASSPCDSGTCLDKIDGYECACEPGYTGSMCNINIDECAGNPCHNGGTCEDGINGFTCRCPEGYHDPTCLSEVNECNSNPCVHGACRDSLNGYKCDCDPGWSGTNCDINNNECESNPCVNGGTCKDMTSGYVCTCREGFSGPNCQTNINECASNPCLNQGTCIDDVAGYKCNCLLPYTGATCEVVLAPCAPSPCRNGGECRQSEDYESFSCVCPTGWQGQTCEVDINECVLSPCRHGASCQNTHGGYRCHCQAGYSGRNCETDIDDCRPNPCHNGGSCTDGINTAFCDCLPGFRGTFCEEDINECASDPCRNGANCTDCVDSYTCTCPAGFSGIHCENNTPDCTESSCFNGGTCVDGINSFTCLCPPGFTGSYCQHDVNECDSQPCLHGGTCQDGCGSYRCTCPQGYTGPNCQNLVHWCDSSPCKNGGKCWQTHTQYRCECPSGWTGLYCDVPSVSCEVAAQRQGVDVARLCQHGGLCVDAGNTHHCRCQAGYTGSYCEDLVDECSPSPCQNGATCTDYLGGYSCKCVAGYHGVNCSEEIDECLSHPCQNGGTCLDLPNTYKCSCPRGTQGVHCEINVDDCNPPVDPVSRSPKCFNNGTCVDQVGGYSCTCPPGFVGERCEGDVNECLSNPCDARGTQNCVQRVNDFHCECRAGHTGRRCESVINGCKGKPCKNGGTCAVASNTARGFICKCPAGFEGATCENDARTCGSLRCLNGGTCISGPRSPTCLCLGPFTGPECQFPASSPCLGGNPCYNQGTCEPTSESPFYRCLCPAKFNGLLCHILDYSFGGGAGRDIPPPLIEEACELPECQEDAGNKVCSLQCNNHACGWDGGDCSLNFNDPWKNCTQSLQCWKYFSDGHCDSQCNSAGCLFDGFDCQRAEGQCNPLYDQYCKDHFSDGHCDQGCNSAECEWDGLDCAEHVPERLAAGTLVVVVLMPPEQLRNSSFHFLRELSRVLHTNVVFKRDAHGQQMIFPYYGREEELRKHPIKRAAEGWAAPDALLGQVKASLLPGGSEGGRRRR
hNotch1, sequence (P46531 1665-1756 limits assumed): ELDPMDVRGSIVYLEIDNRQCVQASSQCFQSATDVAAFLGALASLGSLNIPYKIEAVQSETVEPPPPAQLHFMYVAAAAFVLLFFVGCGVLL
Notch1 (EGF6-13), sequence (P46531 257-526 limits assumed): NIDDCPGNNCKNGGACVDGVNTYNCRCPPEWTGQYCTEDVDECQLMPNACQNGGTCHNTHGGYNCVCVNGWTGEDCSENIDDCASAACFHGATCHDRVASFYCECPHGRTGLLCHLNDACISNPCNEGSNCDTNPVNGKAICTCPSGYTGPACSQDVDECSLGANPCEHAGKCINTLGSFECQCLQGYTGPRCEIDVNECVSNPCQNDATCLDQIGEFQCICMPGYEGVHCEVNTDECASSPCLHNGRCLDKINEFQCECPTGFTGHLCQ
Notch1, sequence (P46531 295-488 limits assumed): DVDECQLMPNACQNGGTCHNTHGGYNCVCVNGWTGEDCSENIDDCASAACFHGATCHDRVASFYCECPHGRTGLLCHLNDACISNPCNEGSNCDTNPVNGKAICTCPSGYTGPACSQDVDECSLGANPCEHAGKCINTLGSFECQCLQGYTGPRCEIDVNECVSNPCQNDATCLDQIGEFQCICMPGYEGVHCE

B1: Delta^MAX: engineered human DLL4 consensus variant with 10 mutations combining DLL4.v1 and DLL4.v2 mutations; sequence matches SEQ ID NO: 4/10 (protein)
chain: SSVFQLQLQEFINERGVLASGRPCEPGCRTFFRVCLKHFQAVVSPGPCTFGTVSTPVLGTNSFAVRDDSSGGGRNPLQLPLNFTWPGTFSLIIEAWHAPGDDLRPEALPPDALISKFAIQGSLAVGQNWLLDEQTSTLTRLRYSYRVICSDNYYGDNCSRLCKKRNDYFGHYVCQPDGNPSCLPGWTGEYCQQPICLSGCHEQNGYCSKPAECLCRPGWQGRLCNECIPHPGCRHGTCSTPWQCLCDEGWGGLYCDQDLNYCTHHSPCKNGATCRNSGPRSYTCTCRPGYTGVDCELELSECDSNPCRNGGSCKDQEDGYHCLCPPGYYGLHCEHSTLSCADSPCFNGGSCRERNQGANYACECPPNFTGSNCE
Q: For B1, which “increase in Notch1 activation relative to controls” value (hNotch1; co-culture with HEK293T expressing ligand, ratio 1:1) is on record?
A: 15 fold

Q: What about the “increase in Notch1 activation relative to controls” value (hNotch1; ligand-coated streptavidin magnetic beads, ratio 1:20 reporter cells:beads) of the same molecule?
A: 21 fold

Q: What about the “increase in Notch1 activation relative to controls” value (hNotch1; non-specific adsorption, 0.1 ng/mm^2) of the same molecule?
A: 23 fold

Q: And the “increase in Notch1 activation relative to controls” value (hNotch1; oriented coupling on streptavidin plates, 10 nM)?
A: 50 fold

Q: And the “Notch1 activation relative to controls” value (hNotch1; yeast-displayed, ratio 1:10 reporter:yeast)?
A: did not induce a significant change

Q: And the “speed of Notch1 activation compared to WT DLL4” value (Notch1)?
A: more rapidly

Q: What about the “enhancement of affinity compared to WT DLL4” value (Notch1 (EGF6-13); Notch1) of the same molecule?
A: 1,029 fold

Q: What about the Kd (Notch1 (EGF6-13); SPR, 25° C., ligand N-EGF5, read-out: dissociation constant (KD)) of the same molecule?
A: 24 nM

Q: What about the “off-rate from fitted SPR sensograms” value (Notch1 (EGF6-13); series DLL4.v1, DLL4.v2, Delta^MAX, FIG. 2C Notch1 EGF6-13) of the same molecule?
A: progressive decreases in off-rate

Q: What about the “binding affinity compared to WT DLL4” value (Notch1 (EGF6-13); stated for all four human Notch receptors (Notch1-4)) of the same molecule?
A: enhanced affinity
